Patent publication EP4786494A1 (Nanjing Leads Biolabs Co., Ltd., dated 2026)

What was measured:
[1] = biological target: T1, human FGFR2-his protein (huFGFR2-his) (human); experiment: BLI (ForteBio Octet RED96e), antibody on AHC sensor, FGFR2-his in solution, 1:1 model
T1 construct: Extracellular region of human FGFR2 (NP_001138385.1) with a 6xHis tag; also called human FGFR2 extracellular protein
T1 chain: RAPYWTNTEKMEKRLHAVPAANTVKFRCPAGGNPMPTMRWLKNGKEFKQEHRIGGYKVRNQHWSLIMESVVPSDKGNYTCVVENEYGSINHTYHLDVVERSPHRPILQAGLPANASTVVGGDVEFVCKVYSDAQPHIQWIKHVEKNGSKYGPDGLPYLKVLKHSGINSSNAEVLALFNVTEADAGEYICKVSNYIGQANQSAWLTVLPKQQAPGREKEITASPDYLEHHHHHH

[2] = biological target: T2, cynomolgus FGFR2-his protein (cynoFGFR2-his) (cynomolgus); experiment: BLI (ForteBio Octet RED96e), antibody on AHC sensor, cynomolgus FGFR2-his in solution, 1:1 model
T2 construct: Extracellular region of cynomolgus FGFR2b (XP_028682763.1) with a 6xHis tag; also called cynomolgus FGFR2 extracellular protein
T2 chain: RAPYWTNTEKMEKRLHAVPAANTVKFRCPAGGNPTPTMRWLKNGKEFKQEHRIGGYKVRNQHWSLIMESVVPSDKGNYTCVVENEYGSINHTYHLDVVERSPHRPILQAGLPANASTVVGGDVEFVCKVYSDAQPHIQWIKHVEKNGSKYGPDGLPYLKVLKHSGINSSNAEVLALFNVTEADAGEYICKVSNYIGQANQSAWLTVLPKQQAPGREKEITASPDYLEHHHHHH

B1: humanized monoclonal antibody huG11B8-5 (antibody, human IgG1, kappa, V domains shown)
VH: EVQLVQSGAEVKKPGATVKISCKASGYTFTDYNMDWVQQAPGKGLEWMGDINPKNGETFYAEKFQGRVTLTVDRSTNTAYMELSSLRSEDTAVYFCAKRDLNWYFDYWGQGTTVTVSS
VL: DIQMTQSPSSLSASVGDRVTITCQASDHINNWLAWYQQKPGKAPKLLISGATSLETGVPSRFSGSGSGKDYTFTISSLQPEDIATYYCQQYWSTPWTFGGGTKVEIKR
notes: huG11B8H-3 + huG11B8L-1; human IgG1 / kappa
For B1, the Kd [1] was 2.62 nM, the koff [1] was 0.000431 s⁻¹ and the kon [1] was 164000 M⁻¹ s⁻¹. The Kd [2] was 1.62 nM, the koff [2] was 0.000866 s⁻¹ and the kon [2] was 536000 M⁻¹ s⁻¹.
